Laboratory results: patent KR20200090598A
Substitutions are numbered along the chain they refer to.

B1: C2G4 scFv 단백질 (scFv)
scFv: EVQLLESGGGLVQPGGSLRLSCAASGFTFSNYAMSWVRQAPGKGLEWVSGIPPDSGSKYYADSVRGRFTVSRDNSKNTLYLQMNSLRAEDTAVYYCAKNMLSFDYWGQGTLVTVSSGGGGSGGGGSGGGGSQSVLTQPPSASGTPGQRVTISCTGSSSNIGSNAVSWYQQLPGTAPKLLIYYNSKRPSGVPDRFSGSKSGTSASLAISGLRSEDEADYYCGSWDPSLNGYVFGGGTKVTVLG
B2: MS501 scFv 단백질 (scFv)
scFv: EVQLLESGGGLVQPGGSLRLSCAASGFTFSNYAMSWVRQAPGKGLEWVSGIYPDSGSTYYADSVKGRFTISRDNSKNTLYLQMNSLRAEDTAVYYCARNIYTFDYWGQGTLVTVSSGGGGSGGGGSGGGGSQSVLTQPPSASGTPGQRVTISCSGSSSNIGSNAVSWYQQLPGTAPKLLIYYNNQRPSGVPDRFSGSKSGTSASLAISGLRSEDEADYYCGSWDSSLSGYVFGGGTKLTVLG
B3: MS503 scFv 단백질 (scFv)
scFv: B2 scFv with G50S, D54G, S55D, R98K, I100A, Y101F, N184S, Q185H, S222T

What follows are binders tested against 메소텔린 (MIA PaCa2-MSLN 세포에 과발현) (UniProt Q13421) (assay: flow cytometry on MIA PaCa2-MSLN cells; 1 μg scFv, anti-6xHis tag detection).

Row | percent of cells bound [%] | Binder
1 | > 68 | B1
2 | > 68 | B2
3 | > 68 | B3
